Measurements from publication PMC5816147.

Molecular target: GLP1 receptor (human) (UniProt P43220)
Sequence (P43220 24-463): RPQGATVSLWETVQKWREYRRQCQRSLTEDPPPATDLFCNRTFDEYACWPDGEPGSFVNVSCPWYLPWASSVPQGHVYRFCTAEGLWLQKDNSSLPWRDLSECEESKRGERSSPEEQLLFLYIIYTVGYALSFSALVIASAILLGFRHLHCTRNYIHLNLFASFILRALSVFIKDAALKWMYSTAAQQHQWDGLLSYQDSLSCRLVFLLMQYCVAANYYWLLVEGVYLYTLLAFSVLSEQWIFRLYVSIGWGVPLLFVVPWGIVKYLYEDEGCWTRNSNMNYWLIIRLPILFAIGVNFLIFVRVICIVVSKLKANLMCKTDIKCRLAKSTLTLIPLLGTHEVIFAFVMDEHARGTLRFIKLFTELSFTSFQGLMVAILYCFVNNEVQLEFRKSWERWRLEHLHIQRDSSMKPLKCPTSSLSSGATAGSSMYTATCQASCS

An EC50 of CRE-luciferase expression in HEK293 cells stably expressing GLP1R of 2200 nM was found for (D)-GLP1 peptide (designed binder) in this work.
